From patent US20200283741
Substitutions are numbered along the chain they refer to. In names and notes the source's numbering stands.

Experiments:
[1] = target: T1, HbA1c-type αF8P (α-fructosyl-valyl-histidyl-leucyl-threonyl-prolyl-glutamyl-glutamyl-lysine)
T1 chain: VHLTPEEK

HbC1c-type αF8P = target: T2, HbC1c-type αF8P
T2 chain: VHLTPKEK

HbS1c-type αF8P = target: T3, HbS1c-type αF8P
T3 chain: VHLTPVEK

B1: glycated hexapeptide oxidase derived from Emericella nidulans (En42FX) (protein)
chain: MAPRANTKIIVVGGGGTMGSSTALHLLRAGYTPSNITVLDTYPIPSAQSAGYDLNKIFGISGANKHDLQLSLEAFDMWKNDPLFKPFFHNVGQMDVSSTEEGIKRLRRRYQSLLRAGIGLEKTNFLLESEDEILAKAPHFTREQIKGWKGLFCGDGGWLAAAKAINAIGQFLKEQGVKFGFGEAGTFKKPLFADADEKTCIGVETVDGTKYYADKVVLAAGAWSSTLVDLEEQCVSKAWVFAHIQLTPAEAAAYKNTPVIYDGDYGFFIEPDENGIIKVCDEFPGFTHFKMHQPYGSPVPKLISVPRSHAKHPTDTYPHASEVTIKKAINRFLPRFNDKELFNRAMCWCTDTADSNLLVCEHPRWKGFYLATGDSGHSFKLLPNIGKHVVELLEGRLESVFKDAWRWRPGSGDALKSRRAAPAKDLADMPGWRNEAKM
Q: With B1 as the protein, how does the relative activity on substrate (reference, designated as 100%) [1] read?
A: Its relative activity on substrate (reference, designated as 100%) is 100%.

Q: And the relative activity on substrate (activity on HbA1c-type αF8P = 100%) (HbC1c-type αF8P)?
A: The relative activity on substrate (activity on HbA1c-type αF8P = 100%) was 8%.

Q: And the relative activity on substrate (activity on HbA1c-type αF8P = 100%) (HbS1c-type αF8P)?
A: Its relative activity on substrate (activity on HbA1c-type αF8P = 100%) is 41%.

B2: En42FX R105N (protein)
chain: B1 chain with R105N
Q: Which relative activity on substrate (reference, designated as 100%) [1] does the source give for B2 here?
A: The relative activity on substrate (reference, designated as 100%) was 100%.

Q: And the relative activity on substrate (activity on HbA1c-type αF8P = 100%) (HbC1c-type αF8P)?
A: The relative activity on substrate (activity on HbA1c-type αF8P = 100%) was 11%.

Q: What about the relative activity on substrate (activity on HbA1c-type αF8P = 100%) (HbS1c-type αF8P) of the same protein?
A: Its relative activity on substrate (activity on HbA1c-type αF8P = 100%) is 95%.

B3: En42FX R108S (protein)
chain: B1 chain with R108S
Q: How did the relative activity on substrate (reference, designated as 100%) [1] turn out when B3 was run?
A: The relative activity on substrate (reference, designated as 100%) was 100%.

Q: What about the relative activity on substrate (activity on HbA1c-type αF8P = 100%) (HbC1c-type αF8P) of the same protein?
A: The relative activity on substrate (activity on HbA1c-type αF8P = 100%) was 10%.

Q: What about the relative activity on substrate (activity on HbA1c-type αF8P = 100%) (HbS1c-type αF8P) of the same protein?
A: The relative activity on substrate (activity on HbA1c-type αF8P = 100%) was 61%.

B4: En42FX R105A (protein)
chain: B1 chain with R105A
Q: Which results are given for B4?
A: relative activity on substrate (reference, designated as 100%) [1]: 100%; relative activity on substrate (activity on HbA1c-type αF8P = 100%) (HbC1c-type αF8P): 33%; relative activity on substrate (activity on HbA1c-type αF8P = 100%) (HbS1c-type αF8P): 70%

B5: En42FX R108A (protein)
chain: B1 chain with R108A
Q: For B5, which relative activity on substrate (reference, designated as 100%) [1] is on record?
A: The relative activity on substrate (reference, designated as 100%) was 100%.

Q: What about the relative activity on substrate (activity on HbA1c-type αF8P = 100%) (HbC1c-type αF8P) of the same protein?
A: Its relative activity on substrate (activity on HbA1c-type αF8P = 100%) is 57%.

Q: What about the relative activity on substrate (activity on HbA1c-type αF8P = 100%) (HbS1c-type αF8P) of the same protein?
A: The relative activity on substrate (activity on HbA1c-type αF8P = 100%) was 70%.

B6: En42FX R105Q (protein)
chain: B1 chain with R105Q
Q: With B6 as the protein, how does the relative activity on substrate (reference, designated as 100%) [1] read?
A: Its relative activity on substrate (reference, designated as 100%) is 100%.

Q: What about the relative activity on substrate (activity on HbA1c-type αF8P = 100%) (HbC1c-type αF8P) of the same protein?
A: The relative activity on substrate (activity on HbA1c-type αF8P = 100%) was 25%.

Q: And the relative activity on substrate (activity on HbA1c-type αF8P = 100%) (HbS1c-type αF8P)?
A: Its relative activity on substrate (activity on HbA1c-type αF8P = 100%) is 70%.

B7: En42FX R105E (protein)
chain: B1 chain with R105E
Q: Which relative activity on substrate (reference, designated as 100%) [1] does the source give for B7 here?
A: The relative activity on substrate (reference, designated as 100%) was 100%.

Q: What about the relative activity on substrate (activity on HbA1c-type αF8P = 100%) (HbC1c-type αF8P) of the same protein?
A: Its relative activity on substrate (activity on HbA1c-type αF8P = 100%) is 31%.

Q: What about the relative activity on substrate (activity on HbA1c-type αF8P = 100%) (HbS1c-type αF8P) of the same protein?
A: Its relative activity on substrate (activity on HbA1c-type αF8P = 100%) is 69%.

B8: CFP-T7-H40-3M K113N (protein)
chain: MTSNRADTRVIVVGGGGTIGSSTALHLVRSGYAPANITVLDTFEIPSAQSAGHDLNKIMGIDHGNKVNLQMSLEARQMWKEDELFQPFFHNTGRMDCESTPKGIEKLKKYYQNLHDAGAGLEKTHAWLDNEDEILSKMPLLQRDQIQGWKAIWSQDGGWLAAAKAINAIGQFLKERGVKFGFGGAGSFKQPLFDDEGTTCIGVETADGTKYYADKVVLAAGAWSPTLVDLEDQCCSKAWVYAHIQLTPEEAAEYKGVPVVYNSEYGFFFEPDEFGVIKVCNEFPGFSRFKEHQPYGAPSPKRISVPRSHAKHPTDTYPDASEVSIKKAIATFLPRFQDKELFNRALCWCTDTADSTLLMCEHPKWKNFILATGDSGHSFKILPNVGKYVVELIEGRLPEEMAYQWRWRPGGDALKSRRAAPPKDLADMPGWKHDPKL
Q: How did the relative activity on substrate (reference, designated as 100%) [1] turn out when B8 was run?
A: Its relative activity on substrate (reference, designated as 100%) is 100%.

Q: And the “specific activity on substrate” value [1]?
A: Its value is “at least 20 mU/mg”.

Q: And the relative activity on substrate (activity on HbA1c-type αF8P = 100%) (HbC1c-type αF8P)?
A: The relative activity on substrate (activity on HbA1c-type αF8P = 100%) was 42%.

Q: And the “specific activity on substrate” value (HbC1c-type αF8P)?
A: The value was “at least 20 mU/mg”.

Q: What about the relative activity on substrate (activity on HbA1c-type αF8P = 100%) (HbS1c-type αF8P) of the same protein?
A: The relative activity on substrate (activity on HbA1c-type αF8P = 100%) was 95%.

Q: What about the “specific activity on substrate” value (HbS1c-type αF8P) of the same protein?
A: The value was “at least 20 mU/mg”.

B9: CFP-T7-H40-3M K113D (protein)
chain: B8 chain with N113D
Q: What does the source list for B9?
A: relative activity on substrate (reference, designated as 100%) [1]: 100%; specific activity on substrate [1]: at least 20 mU/mg; relative activity on substrate (activity on HbA1c-type αF8P = 100%) (HbC1c-type αF8P): 39%; specific activity on substrate (HbC1c-type αF8P): at least 20 mU/mg; relative activity on substrate (activity on HbA1c-type αF8P = 100%) (HbS1c-type αF8P): 93%; specific activity on substrate (HbS1c-type αF8P): at least 20 mU/mg

B10: CFP-T7-H40-3M K113Q (protein)
chain: B8 chain with N113Q
Q: Which results are given for B10?
A: relative activity on substrate (reference, designated as 100%) [1]: 100%; specific activity on substrate [1]: at least 20 mU/mg; relative activity on substrate (activity on HbA1c-type αF8P = 100%) (HbC1c-type αF8P): 50%; specific activity on substrate (HbC1c-type αF8P): at least 20 mU/mg; relative activity on substrate (activity on HbA1c-type αF8P = 100%) (HbS1c-type αF8P): 106%; specific activity on substrate (HbS1c-type αF8P): at least 20 mU/mg
